Measurements reported in patent US20230203178A1 (SICHUAN KELUN BIOTECH BIOPHARMACEUTICAL, published 2023).

Biological target: T1, human CD19 (antigen) (human, UniProt P15391 20-291, limits assumed)
T1 sequence (looked up): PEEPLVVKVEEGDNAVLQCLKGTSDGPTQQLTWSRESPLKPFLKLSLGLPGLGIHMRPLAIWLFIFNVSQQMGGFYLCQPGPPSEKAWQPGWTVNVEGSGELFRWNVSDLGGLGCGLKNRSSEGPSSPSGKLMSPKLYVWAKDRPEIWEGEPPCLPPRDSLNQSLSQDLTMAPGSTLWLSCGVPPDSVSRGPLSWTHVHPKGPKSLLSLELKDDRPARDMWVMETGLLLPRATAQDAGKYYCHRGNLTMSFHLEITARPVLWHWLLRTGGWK
Experiment: affinity determination, method not stated; humanized monoclonal antibody

B1: humanized anti-CD19 antibody (H-CD19) (antibody, V domains shown)
VH: QVTLRESGPALVKPTQTLTLTCTFSGVSLPDYGVSWIRQPPGKALEWLAVIWGSETTYYNSALKSRLTISKDTSKNQVVLTMTNMDPVDTATYYCAKHYYYGGSYAMDYWGQGTTVTVSS
VL: EIVLTQSPATLSLSPGERATLSCRASQDISKYLNWYQQKPGQAPRLLIYHTSRLHSGIPDRFSGSGSGTDFTLTISRLEPEDIAVYYCQQGNTLPYTFGQGTKLEI
notes: also called humanized monoclonal antibody
Kd: 28.4 nM
